What was measured:
[1] = target: T1, tetanus neurotoxin (TeNT), authentic tetanus holotoxin (Clostridium tetani, UniProt P04958 2-1315); experiment: competition ELISA on TeNT, binder biotinylated; competitor SVT15L-3FW4M
Target sequence in this assay (P04958 2-457 limits assumed, chain 1 of 2): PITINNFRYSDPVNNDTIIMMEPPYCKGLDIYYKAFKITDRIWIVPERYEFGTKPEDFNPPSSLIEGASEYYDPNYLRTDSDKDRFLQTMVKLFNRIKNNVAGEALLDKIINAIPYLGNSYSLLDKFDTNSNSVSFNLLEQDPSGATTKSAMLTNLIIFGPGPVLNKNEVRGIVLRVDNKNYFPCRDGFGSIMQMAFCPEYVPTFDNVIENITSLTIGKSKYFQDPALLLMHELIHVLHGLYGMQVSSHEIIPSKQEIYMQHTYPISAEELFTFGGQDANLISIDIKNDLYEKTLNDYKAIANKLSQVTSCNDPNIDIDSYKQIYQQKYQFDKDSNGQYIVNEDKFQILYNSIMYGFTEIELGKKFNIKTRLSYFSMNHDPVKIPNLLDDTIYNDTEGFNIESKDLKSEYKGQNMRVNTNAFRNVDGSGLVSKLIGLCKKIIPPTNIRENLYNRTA
Target sequence in this assay (P04958 458-1315 limits assumed, chain 2 of 2): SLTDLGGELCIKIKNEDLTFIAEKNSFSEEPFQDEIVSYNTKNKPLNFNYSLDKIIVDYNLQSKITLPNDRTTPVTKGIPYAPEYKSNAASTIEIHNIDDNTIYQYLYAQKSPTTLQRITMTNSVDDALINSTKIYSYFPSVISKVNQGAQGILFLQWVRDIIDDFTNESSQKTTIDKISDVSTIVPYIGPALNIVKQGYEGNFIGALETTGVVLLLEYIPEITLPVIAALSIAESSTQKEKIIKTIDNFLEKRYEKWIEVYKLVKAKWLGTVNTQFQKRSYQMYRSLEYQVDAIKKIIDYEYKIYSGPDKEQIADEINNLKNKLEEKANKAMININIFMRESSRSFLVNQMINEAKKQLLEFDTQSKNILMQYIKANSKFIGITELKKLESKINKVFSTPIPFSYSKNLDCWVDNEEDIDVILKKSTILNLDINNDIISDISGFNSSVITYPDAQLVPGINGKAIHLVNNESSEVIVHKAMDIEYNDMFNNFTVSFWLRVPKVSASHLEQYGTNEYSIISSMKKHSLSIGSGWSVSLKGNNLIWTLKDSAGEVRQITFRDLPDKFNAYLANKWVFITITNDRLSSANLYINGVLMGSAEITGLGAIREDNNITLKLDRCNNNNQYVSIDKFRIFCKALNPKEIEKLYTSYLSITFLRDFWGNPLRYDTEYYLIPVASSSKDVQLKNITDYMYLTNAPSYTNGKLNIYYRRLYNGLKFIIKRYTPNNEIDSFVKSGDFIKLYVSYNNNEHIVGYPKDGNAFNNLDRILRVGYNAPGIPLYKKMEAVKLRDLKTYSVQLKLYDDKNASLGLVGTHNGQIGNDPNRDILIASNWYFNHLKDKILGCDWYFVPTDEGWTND

[2] = target: T1, tetanus neurotoxin (TeNT), authentic …; experiment: competition ELISA on TeNT, binder biotinylated; competitor mAb 14F5
Target sequence in this assay (P04958 2-457 limits assumed, chain 1 of 2): as the sequence (P04958 2-457 limits assumed, chain 1 of 2) above
Target sequence in this assay (P04958 458-1315 limits assumed, chain 2 of 2): as the sequence (P04958 458-1315 limits assumed, chain 2 of 2) above

[3] = target: T1, tetanus neurotoxin (TeNT), authentic …; experiment: GT1b-TeNT inhibition ELISA, EC at A450 0.59
Target sequence in this assay (P04958 2-457 limits assumed, chain 1 of 2): as the sequence (P04958 2-457 limits assumed, chain 1 of 2) above
Target sequence in this assay (P04958 458-1315 limits assumed, chain 2 of 2): as the sequence (P04958 458-1315 limits assumed, chain 2 of 2) above

[4] = target: T1, tetanus neurotoxin (TeNT), authentic …; experiment: competition ELISA on TeNT, binder biotinylated; competitor SVT22L
[5] = target: T1, tetanus neurotoxin (TeNT), authentic …; experiment: ELISA, TeNT captured with cAb-TT2, unlabelled binder
Target sequence in this assay (P04958 2-457 limits assumed, chain 1 of 2): as the sequence (P04958 2-457 limits assumed, chain 1 of 2) above
Target sequence in this assay (P04958 458-1315 limits assumed, chain 2 of 2): as the sequence (P04958 458-1315 limits assumed, chain 2 of 2) above

[6] = target: T1, tetanus neurotoxin (TeNT), authentic …; experiment: competition ELISA on TeNT, binder biotinylated; competitor SVT16L
Target sequence in this assay (P04958 2-457 limits assumed, chain 1 of 2): as the sequence (P04958 2-457 limits assumed, chain 1 of 2) above
Target sequence in this assay (P04958 458-1315 limits assumed, chain 2 of 2): as the sequence (P04958 458-1315 limits assumed, chain 2 of 2) above

[7] = target: T1, tetanus neurotoxin (TeNT), authentic …; experiment: competition ELISA on TeNT, binder biotinylated; competitor SVT06L
Target sequence in this assay (P04958 2-457 limits assumed, chain 1 of 2): as the sequence (P04958 2-457 limits assumed, chain 1 of 2) above
Target sequence in this assay (P04958 458-1315 limits assumed, chain 2 of 2): as the sequence (P04958 458-1315 limits assumed, chain 2 of 2) above

[8] = target: T1, tetanus neurotoxin (TeNT), authentic …; experiment: ELISA, TeNT captured with cAb-TT2, biotinylated binder
[9] = target: T1, tetanus neurotoxin (TeNT), authentic …; experiment: competition ELISA on TeNT, binder biotinylated; competitor SVT13L
[10] = target: T2, recombinant tetanus toxin fragment C (rTTC) (Clostridium tetani, UniProt P04958 865-1315); experiment: ELISA, directly coated rTTC, unlabelled binder
T2 sequence: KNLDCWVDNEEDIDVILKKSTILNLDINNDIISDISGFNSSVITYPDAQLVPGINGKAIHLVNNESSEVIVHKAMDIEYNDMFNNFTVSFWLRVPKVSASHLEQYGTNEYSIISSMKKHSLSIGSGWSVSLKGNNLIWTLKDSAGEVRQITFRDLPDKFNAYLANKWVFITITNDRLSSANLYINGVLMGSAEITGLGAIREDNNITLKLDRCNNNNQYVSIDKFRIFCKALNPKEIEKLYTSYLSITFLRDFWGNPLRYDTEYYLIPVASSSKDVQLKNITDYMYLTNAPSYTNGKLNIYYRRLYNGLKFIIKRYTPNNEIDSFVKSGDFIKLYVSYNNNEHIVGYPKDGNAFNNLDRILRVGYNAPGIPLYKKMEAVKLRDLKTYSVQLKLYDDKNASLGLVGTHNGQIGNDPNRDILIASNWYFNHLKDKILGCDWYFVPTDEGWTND

[11] = target: T1, tetanus neurotoxin (TeNT), authentic …; experiment: competition ELISA on TeNT, binder biotinylated; competitor SVT03L
[12] = target: T1, tetanus neurotoxin (TeNT), authentic …; experiment: ELISA, directly coated TeNT, biotinylated binder
[13] = target: T1, tetanus neurotoxin (TeNT), authentic …; experiment: competition ELISA on TeNT, binder biotinylated; competitor mAb 6E7
[14] = target: T1, tetanus neurotoxin (TeNT), authentic …; experiment: competition ELISA on TeNT, binder biotinylated; competitor mAb 11n185
[15] = target: T1, tetanus neurotoxin (TeNT), authentic …; experiment: competition ELISA on TeNT, binder biotinylated; competitor mAb 6F57
[16] = target: T1, tetanus neurotoxin (TeNT), authentic …; experiment: competition ELISA on TeNT, binder biotinylated; competitor SVT34L
[17] = target: T1, tetanus neurotoxin (TeNT), authentic …; experiment: competition ELISA on TeNT, binder biotinylated; competitor SVT02L
[18] = target: T1, tetanus neurotoxin (TeNT), authentic …; experiment: ELISA, directly coated TeNT, unlabelled binder
[19] = target: T1, tetanus neurotoxin (TeNT), authentic …; experiment: competition ELISA on TeNT, binder biotinylated; competitor SVT15L
[20] = target: T1, tetanus neurotoxin (TeNT), authentic …; experiment: competition ELISA on TeNT, binder biotinylated; competitor SVT08L
[21] = target: T1, tetanus neurotoxin (TeNT), authentic …; experiment: GT1b-TeNT inhibition ELISA, unlabelled binder
[22] = target: T3, tetanus neurotoxin (TeNT), authentic tetanus holotoxin (Clostridium tetani, UniProt P04958 2-1315); experiment: GT1b-TeNT inhibition ELISA
[23] = target: T3, tetanus neurotoxin (TeNT), authentic …; experiment: ELISA: directly coated TeNT, anti-his6 PO
[24] = target: T3, tetanus neurotoxin (TeNT), authentic …; experiment: GT1b-TeNT inhibition ELISA; remark: listed apart in the source
[25] = target: T3, tetanus neurotoxin (TeNT), authentic …; experiment: ELISA: directly coated TeNT, goat anti-llama Ig PO
[26] = target: T3, tetanus neurotoxin (TeNT), authentic …; experiment: ELISA: directly coated TeNT, goat anti-llama Ig PO; remark: listed apart in the source
[27] = target: T3, tetanus neurotoxin (TeNT), authentic …; experiment: ELISA: directly coated TeNT, anti-his6 PO; remark: listed apart in the source
[28] = target: T3, tetanus neurotoxin (TeNT), authentic …; experiment: bridging ELISA: coated TeNT, SDA, biotinylated TeNT, StrepPO (bivalent binding)
[29] = target: T3, tetanus neurotoxin (TeNT), authentic …; experiment: as above; remark: listed apart in the source
[30] = target: T4, tetanus neurotoxin (TeNT), authentic tetanus holotoxin (Clostridium tetani, UniProt P04958 2-1315); experiment: GT1b-TeNT inhibition ELISA (no SDA: 1.302, 1.257)
[31] = target: T4, tetanus neurotoxin (TeNT), authentic …; experiment: ELISA, directly coated TeNT, E. coli supernatant
[32] = target: T4, tetanus neurotoxin (TeNT), authentic …; experiment: ELISA, cAb-TT2 captured TeNT, E. coli supernatant
[33] = target: T5, recombinant tetanus toxin fragment C (rTTC) (Clostridium tetani, UniProt P04958 865-1315); experiment: ELISA, directly coated rTTC, E. coli supernatant
T5 sequence: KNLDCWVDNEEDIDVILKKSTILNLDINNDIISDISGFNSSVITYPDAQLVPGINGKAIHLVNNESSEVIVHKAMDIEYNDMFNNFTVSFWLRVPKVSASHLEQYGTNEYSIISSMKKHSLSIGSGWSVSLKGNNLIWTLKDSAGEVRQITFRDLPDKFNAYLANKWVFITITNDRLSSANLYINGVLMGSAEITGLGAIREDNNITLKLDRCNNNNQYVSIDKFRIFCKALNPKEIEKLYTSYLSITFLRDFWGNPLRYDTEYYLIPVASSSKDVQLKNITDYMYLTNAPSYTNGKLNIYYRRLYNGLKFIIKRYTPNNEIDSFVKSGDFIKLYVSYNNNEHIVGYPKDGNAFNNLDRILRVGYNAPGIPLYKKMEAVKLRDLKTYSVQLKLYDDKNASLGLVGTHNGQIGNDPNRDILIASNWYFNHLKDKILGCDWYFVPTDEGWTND

B1: SVT15L (VHH)
VHH: QVQLQESGGGLVQTGGSLRLSCRASGRAFANYHFGWFRQAPGKDREFVASISWKGGSTYYANFALGRFTSSVDRAESSVYLQMSGLTPEDTATYYCAAHDGGDWNYHTGMDYWGKGILVTVSS
In the case of B1, the “% inhibition of binding” value [1] is reported as 96%, the “% inhibition of binding” value [2] is reported as 7% and the “concentration giving A450 of 0.59” value [3] is reported as 0.072 µg/mL. The “% inhibition of binding” value [4] was 2%, the “EC resulting in A450 0.15” value [5] was 5.7 ng/mL and the “maximal absorbance at 450 nm” value [5] was 0.477. The “% inhibition of binding” value [6] was 5%, the “% inhibition of binding” value [7] was 1% and the “EC resulting in A450 0.2” value [8] was 5.7 ng/mL. For the same binder, the “maximal absorbance at 450 nm” value [8] was 0.825, the “% inhibition of binding” value [9] was 2% and the “maximal absorbance at 450 nm” value [10] was 0.528. The “% inhibition of binding” value [11] was -5%, the “EC resulting in A450 0.4” value [12] was 2.8 ng/mL and the “maximal absorbance at 450 nm” value [12] was 1.4. The “% inhibition of binding” value [13] was 6%, the “% inhibition of binding” value [14] was 0% and the “% inhibition of binding” value [15] was 4%. The “% inhibition of binding” value [16] was 10%, the “% inhibition of binding” value [17] was 6% and the “EC resulting in A450 0.2” value [18] was 2.8 ng/mL. The “maximal absorbance at 450 nm” value [18] was 1.34, the “% inhibition of binding” value [19] was 96% and the “% inhibition of binding” value [20] was 15%. The “minimal absorbance at 450 nm” value [21] was 0.14.

B2: SVT15L-3FW4M (VHH)
VHH: QVQLQESGGGLVQTGGSLRLSCRASGRAFANYHFGWFRQAPGKDREFVASISWKGGSTYYANFALGRFTSSVDRAESSVYLQMSGLTPEDTATYYCAAHDGGDWNYHTGMDYWGQGTQVTVSS
In the case of B2, the “minimal absorbance value (GT1b-TeNT inhibition)” value [22] is reported as 0.19 A450, the maximal absorbance value [23] is reported as 0.19 A450 and the “Effective SDA Concentration at A450 0.56” value [24] is reported as 31 ng/mL. For the same binder, the “Effective SDA Concentration at A450 0.15” value [25] was 6 ng/mL, the maximal absorbance value [26] was 0.35 A450 and the “Effective SDA Concentration at A450 0.15” value [27] was 26 ng/mL. The maximal absorbance value [28] was 0.2 A450 and the “Effective SDA Concentration at A450 0.3” value [29] was > 1000 ng/mL.

B3: SVT08L (VHH)
VHH: QVQLQESGGGSVQAGGSLRLSCTASEFSYNDYTIAWFRRAAGKGRVEDGEGVASITTSYDRAYDNRIHYGDSVKGRFTISRDNAKNTVYLQMTNLNPSDTAVYYCGLDITPPGGIGASLTEGFLFDYWGQGTQVTVSS
B3 was tested, and the “% inhibition of binding” value [1] was 12%, the “% inhibition of binding” value [2] was 3% and the “concentration giving A450 of 0.59” value [3] was 0.411 µg/mL. The “% inhibition of binding” value [4] was 6%, the “EC resulting in A450 0.15” value [5] was 3.6 ng/mL and the “maximal absorbance at 450 nm” value [5] was 0.36. For the same binder, the “% inhibition of binding” value [6] was 8%, the “% inhibition of binding” value [7] was 95% and the “EC resulting in A450 0.2” value [8] was 0.52 ng/mL. The “maximal absorbance at 450 nm” value [8] was 1.2, the “% inhibition of binding” value [9] was 5% and the “maximal absorbance at 450 nm” value [10] was 0.502. The “% inhibition of binding” value [11] was 0%, the “EC resulting in A450 0.4” value [12] was 0.4 ng/mL and the “maximal absorbance at 450 nm” value [12] was 1.57. For the same binder, the “% inhibition of binding” value [13] was 66%, the “% inhibition of binding” value [14] was 4% and the “% inhibition of binding” value [15] was 50%. The “% inhibition of binding” value [16] was 8%, the “% inhibition of binding” value [17] was 7% and the “EC resulting in A450 0.2” value [18] was 2.2 ng/mL. For the same binder, the “maximal absorbance at 450 nm” value [18] was 1.37, the “% inhibition of binding” value [19] was 6% and the “% inhibition of binding” value [20] was 96%. For the same binder, the “minimal absorbance at 450 nm” value [21] was 0.486.

B4: SVT06L (VHH)
VHH: QVQLQESGGGSVQAGGSLRLSCTASELSYDDYTIAWFRRAAGEGRVEDGEGVASITKSYDRAYDNKINYGHSVKGRFTISRDNAKNTVYLQMTDLLPSDTAVYYCALDITPPGGVGASLTEGFLFDYWGQGTQVTVSS
B4 was tested, and the “% inhibition of binding” value [1] was 12%, the “% inhibition of binding” value [2] was 11% and the “concentration giving A450 of 0.59” value [3] was 0.317 µg/mL. The “% inhibition of binding” value [4] was 3%, the “EC resulting in A450 0.15” value [5] was 2.6 ng/mL and the “maximal absorbance at 450 nm” value [5] was 0.409. The “% inhibition of binding” value [6] was -3%, the “% inhibition of binding” value [7] was 96% and the “EC resulting in A450 0.2” value [8] was 0.37 ng/mL. The “maximal absorbance at 450 nm” value [8] was 1.2, the “% inhibition of binding” value [9] was 7% and the “maximal absorbance at 450 nm” value [10] was 0.543. The “% inhibition of binding” value [11] was -3%, the “EC resulting in A450 0.4” value [12] was 0.39 ng/mL and the “maximal absorbance at 450 nm” value [12] was 1.51. For the same binder, the “% inhibition of binding” value [13] was 67%, the “% inhibition of binding” value [14] was 5% and the “% inhibition of binding” value [15] was 53%. The “% inhibition of binding” value [16] was 11%, the “% inhibition of binding” value [17] was 11% and the “EC resulting in A450 0.2” value [18] was 1.7 ng/mL. The “maximal absorbance at 450 nm” value [18] was 1.39, the “% inhibition of binding” value [19] was 14% and the “% inhibition of binding” value [20] was 97%. The “minimal absorbance at 450 nm” value [21] was 0.481.

B5: SVT05 (VHH)
VHH: QVQLQESGGGLVQPGGSLRLSCSASGFSFTDDYGIGWFRSGPGKGREAVAPIADREAVAAIALSDGNTYYSASAKGRFTISRDNAKSTAYLQMNNLKPEDTATYYCAADFWGYGMSWPMATLWEYWGQGIQVTVSS
For B5, the “absorbance at 450 nm” value [30] was 0.985 A450, the “absorbance at 450 nm” value [31] was 1.04 A450 and the “absorbance at 450 nm” value [32] was 0.548 A450. The “absorbance at 450 nm” value [33] was 0.108 A450.
